For data set [1], the system named is ComP-His (pilin-like protein ComP of A. baylyi with C-6X His tag).
Data set [2] relates to DsbA1-His of N. meningitidis expressed in A. baylyi (pBAV-dsbA1-His, C-6X His).
The test system of data set [3] is OmpA-His (A1S_1193) expressed in A. baylyi.
Data set [4] has as its system OmpA-His (A1S_1193 with C-terminal 5x His tag), expressed in strain M2 backgrounds.
The subject of data set [5] is PilAM2, major type IVa pilin of A. nosocomialis strain M2.
The test system of data set [6] is PilA17978-His (pilin of A. baumannii ATCC 17978 with C-terminal hexa-histidine tag).

For “Pg1LADP1, general O-OTase of A. baylyi ADP1 (ACIAD0103)”, in data set [1], the “ComP-His electrophoretic mobility, western blot” value was “Pg1LADP1 is not required for ComP post-translational modification”. In addition, in data set [2], the “DsbA1-His electrophoretic mobility, western blot of A. baylyi lysates” value is “displayed an increased electrophoretic mobility in the Δpg1LADP1 background relative to wild-type and Δpg1LComP backgrounds”. In data set [3], the “OmpA-His electrophoretic mobility, western blot of A. baylyi lysates” value was “displayed an increased electrophoretic mobility in the Δpg1LADP1 background relative to wild-type and Δpg1LComP backgrounds”.

As for “Pg1LM2, general O-OTase of A. nosocomialis strain M2 (ORF M215_10475)”, the “OmpA-His electrophoretic mobility, western blot; ESI-TOF-MS/MS” value in data set [4] was “OmpA-His from the M2Δpg1L::kan and the M2ΔweeH::kan backgrounds migrated at an increased electrophoretic mobility, consistent with the lack of a post-translational modification”.

In the case of “TfpOM2, type four pilin specific O-oligosaccharyltransferase of A. nosocomialis strain M2 (ORF M215_10480)”, the “MS/MS analysis of PilA from surface shear preparations” value in data set [5] is “PilA from the M2ΔtfpO::kanΔpilT::strep mutant was unmodified”.

As to “Pg1LComP, ComP-specific O-OTase of A. baylyi ADP1 (ACIAD3337)”, the “heterologous PilA17978 electrophoretic mobility, western blot” value in data set [6] is “PilA17978 was not glycosylated by Pg1LComP”. In data set [1], the “ComP-His electrophoretic mobility, western blot” value was “pg1LComP (ACIAD3337) is required for ComP modification”; the “glycosylation in E. coli CLM24, western blot with anti-his and anti-glycan antibodies” value is “lower electrophoretic mobility bands that react to the anti-his and anti-glycan antibodies indicate glycosylation of ComP by the C. jejuni LLO”; the “glycosylation in E. coli CLM24 with the S. pneumoniae serotype 14 CPS locus, western blot” value was “Lower electrophoretic mobility bands in panel A that react to both Anti-His and Anti-Glycan antibodies in lane 2 relative to lane 1”; the “heterologous ComP-His electrophoretic mobility, western blot” value is “ComP-His was only modified in A. baylyi ADP1”. Further, the “heterologous PilAM2 electrophoretic mobility, western blot” value in data set [5] is “Pg1LComP was unable to glycosylate the pilins recognized by TfpO”.

The values are drawn from patent US20210220460.
